Data on four molecules can be found in patent US20140087995A1 (published 2014).

One may read the IC50 as the concentration at which inhibition is half-maximal.

The labels stand for the following.
T1: human calcitonin receptor (human, UniProt P30988 25-474)
T1 construct: whole, on cells; also called hCTR; hCT
T1 sequence (looked up): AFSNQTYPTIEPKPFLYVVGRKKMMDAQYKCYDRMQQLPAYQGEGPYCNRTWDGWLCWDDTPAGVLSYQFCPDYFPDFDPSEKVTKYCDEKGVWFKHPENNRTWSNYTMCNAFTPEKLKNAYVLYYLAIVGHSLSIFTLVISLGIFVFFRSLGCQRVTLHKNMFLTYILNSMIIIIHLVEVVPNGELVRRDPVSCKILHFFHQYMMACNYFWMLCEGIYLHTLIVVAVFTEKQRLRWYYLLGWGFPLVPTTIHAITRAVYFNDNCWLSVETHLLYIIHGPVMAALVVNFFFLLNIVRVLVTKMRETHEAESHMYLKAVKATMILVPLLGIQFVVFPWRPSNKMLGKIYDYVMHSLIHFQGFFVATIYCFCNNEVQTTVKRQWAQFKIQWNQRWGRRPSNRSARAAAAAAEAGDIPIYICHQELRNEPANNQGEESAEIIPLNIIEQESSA

B1: N^ε1-[2-[2-[2-[[(4S)-4-carboxy-4-(19-carboxynonadecanoylamino)butanoyl]amino]ethoxy]ethoxy]acetyl]-[Gly14,Arg17,Pro21,Pro27,Pro31]-h-amylin (peptide)
peptide: K([AEEA-γGlu-C20 diacid])CNTATCATQRLAGFLRHSSPNFGAIPSSTPVGSNTY-NH2
modifications: disulfide 2-7; N-terminus assumed
SMILES: CC[C@H](C)[C@H](NC(=O)[C@H](C)NC(=O)CNC(=O)[C@H](Cc1ccccc1)NC(=O)[C@H](CC(N)=O)NC(=O)[C@@H]1CCCN1C(=O)[C@H](CO)NC(=O)[C@H](CO)NC(=O)[C@H](Cc1c[nH]cn1)NC(=O)[C@H](CCCNC(=N)N)NC(=O)[C@H](CC(C)C)NC(=O)[C@H](Cc1ccccc1)NC(=O)CNC(=O)[C@H](C)NC(=O)[C@H](CC(C)C)NC(=O)[C@H](CCCNC(=N)N)NC(=O)[C@H](CCC(N)=O)NC(=O)[C@@H](NC(=O)[C@H](C)NC(=O)[C@@H]1CSSC[C@H](NC(=O)[C@@H](N)CCCCNC(=O)COCCOCCNC(=O)CC[C@H](NC(=O)CCCCCCCCCCCCCCCCCCC(=O)O)C(=O)O)C(=O)N[C@@H](CC(N)=O)C(=O)N[C@@H]([C@@H](C)O)C(=O)N[C@@H](C)C(=O)N[C@@H]([C@@H](C)O)C(=O)N1)[C@@H](C)O)C(=O)N1CCC[C@H]1C(=O)N[C@@H](CO)C(=O)N[C@@H](CO)C(=O)N[C@H](C(=O)N1CCC[C@H]1C(=O)N[C@H](C(=O)NCC(=O)N[C@@H](CO)C(=O)N[C@@H](CC(N)=O)C(=O)N[C@H](C(=O)N[C@@H](Cc1ccc(O)cc1)C(N)=O)[C@@H](C)O)C(C)C)[C@@H](C)O
notes: also called compound 71
B2: N^ε1-[2-[2-[2-[[(4S)-4-carboxy-4-(19-carboxynonadecanoylamino)butanoyl]amino]ethoxy]ethoxy]acetyl]-[His14,Arg17,Pro21,Pro27]-h-amylin (peptide)
peptide: K([AEEA-γGlu-C20 diacid])CNTATCATQRLAHFLRHSSPNFGAIPSSTNVGSNTY-NH2
modifications: disulfide 2-7; N-terminus assumed
SMILES: CC[C@H](C)[C@H](NC(=O)[C@H](C)NC(=O)CNC(=O)[C@H](Cc1ccccc1)NC(=O)[C@H](CC(N)=O)NC(=O)[C@@H]1CCCN1C(=O)[C@H](CO)NC(=O)[C@H](CO)NC(=O)[C@H](Cc1c[nH]cn1)NC(=O)[C@H](CCCNC(=N)N)NC(=O)[C@H](CC(C)C)NC(=O)[C@H](Cc1ccccc1)NC(=O)[C@H](Cc1c[nH]cn1)NC(=O)[C@H](C)NC(=O)[C@H](CC(C)C)NC(=O)[C@H](CCCNC(=N)N)NC(=O)[C@H](CCC(N)=O)NC(=O)[C@@H](NC(=O)[C@H](C)NC(=O)[C@@H]1CSSC[C@H](NC(=O)[C@@H](N)CCCCNC(=O)COCCOCCNC(=O)CC[C@H](NC(=O)CCCCCCCCCCCCCCCCCCC(=O)O)C(=O)O)C(=O)N[C@@H](CC(N)=O)C(=O)N[C@@H]([C@@H](C)O)C(=O)N[C@@H](C)C(=O)N[C@@H]([C@@H](C)O)C(=O)N1)[C@@H](C)O)C(=O)N1CCC[C@H]1C(=O)N[C@@H](CO)C(=O)N[C@@H](CO)C(=O)N[C@H](C(=O)N[C@@H](CC(N)=O)C(=O)N[C@H](C(=O)NCC(=O)N[C@@H](CO)C(=O)N[C@@H](CC(N)=O)C(=O)N[C@H](C(=O)N[C@@H](Cc1ccc(O)cc1)C(N)=O)[C@@H](C)O)C(C)C)[C@@H](C)O
notes: also called compound 69
B3: N^ε1-[2-[2-[2-[[(4S)-4-carboxy-4-(19-carboxynonadecanoylamino)butanoyl]amino]ethoxy]ethoxy]acetyl]-[His14,Arg17,Pro21,Pro27,Arg34]-h-amylin (peptide)
peptide: K([AEEA-γGlu-C20 diacid])CNTATCATQRLAHFLRHSSPNFGAIPSSTNVGRNTY-NH2
modifications: disulfide 2-7; N-terminus assumed
SMILES: CC[C@H](C)[C@H](NC(=O)[C@H](C)NC(=O)CNC(=O)[C@H](Cc1ccccc1)NC(=O)[C@H](CC(N)=O)NC(=O)[C@@H]1CCCN1C(=O)[C@H](CO)NC(=O)[C@H](CO)NC(=O)[C@H](Cc1c[nH]cn1)NC(=O)[C@H](CCCNC(=N)N)NC(=O)[C@H](CC(C)C)NC(=O)[C@H](Cc1ccccc1)NC(=O)[C@H](Cc1c[nH]cn1)NC(=O)[C@H](C)NC(=O)[C@H](CC(C)C)NC(=O)[C@H](CCCNC(=N)N)NC(=O)[C@H](CCC(N)=O)NC(=O)[C@@H](NC(=O)[C@H](C)NC(=O)[C@@H]1CSSC[C@H](NC(=O)[C@@H](N)CCCCNC(=O)COCCOCCNC(=O)CC[C@H](NC(=O)CCCCCCCCCCCCCCCCCCC(=O)O)C(=O)O)C(=O)N[C@@H](CC(N)=O)C(=O)N[C@@H]([C@@H](C)O)C(=O)N[C@@H](C)C(=O)N[C@@H]([C@@H](C)O)C(=O)N1)[C@@H](C)O)C(=O)N1CCC[C@H]1C(=O)N[C@@H](CO)C(=O)N[C@@H](CO)C(=O)N[C@H](C(=O)N[C@@H](CC(N)=O)C(=O)N[C@H](C(=O)NCC(=O)N[C@@H](CCCNC(=N)N)C(=O)N[C@@H](CC(N)=O)C(=O)N[C@H](C(=O)N[C@@H](Cc1ccc(O)cc1)C(N)=O)[C@@H](C)O)C(C)C)[C@@H](C)O
notes: also called compound 84
B4: N^ε1-[2-[2-[2-[[(4S)-4-carboxy-4-(19-carboxynonadecanoylamino)butanoyl]amino]ethoxy]ethoxy]acetyl]-[His14,Arg17,Pro21,Pro27,His34]-h-amylin (peptide)
peptide: K([AEEA-γGlu-C20 diacid])CNTATCATQRLAHFLRHSSPNFGAIPSSTNVGHNTY-NH2
modifications: disulfide 2-7; N-terminus assumed
SMILES: CC[C@H](C)[C@H](NC(=O)[C@H](C)NC(=O)CNC(=O)[C@H](Cc1ccccc1)NC(=O)[C@H](CC(N)=O)NC(=O)[C@@H]1CCCN1C(=O)[C@H](CO)NC(=O)[C@H](CO)NC(=O)[C@H](Cc1c[nH]cn1)NC(=O)[C@H](CCCNC(=N)N)NC(=O)[C@H](CC(C)C)NC(=O)[C@H](Cc1ccccc1)NC(=O)[C@H](Cc1c[nH]cn1)NC(=O)[C@H](C)NC(=O)[C@H](CC(C)C)NC(=O)[C@H](CCCNC(=N)N)NC(=O)[C@H](CCC(N)=O)NC(=O)[C@@H](NC(=O)[C@H](C)NC(=O)[C@@H]1CSSC[C@H](NC(=O)[C@@H](N)CCCCNC(=O)COCCOCCNC(=O)CC[C@H](NC(=O)CCCCCCCCCCCCCCCCCCC(=O)O)C(=O)O)C(=O)N[C@@H](CC(N)=O)C(=O)N[C@@H]([C@@H](C)O)C(=O)N[C@@H](C)C(=O)N[C@@H]([C@@H](C)O)C(=O)N1)[C@@H](C)O)C(=O)N1CCC[C@H]1C(=O)N[C@@H](CO)C(=O)N[C@@H](CO)C(=O)N[C@H](C(=O)N[C@@H](CC(N)=O)C(=O)N[C@H](C(=O)NCC(=O)N[C@@H](Cc1c[nH]cn1)C(=O)N[C@@H](CC(N)=O)C(=O)N[C@H](C(=O)N[C@@H](Cc1ccc(O)cc1)C(N)=O)[C@@H](C)O)C(C)C)[C@@H](C)O
notes: also called compound 80

Numbered stars: 1 amine (or outer) side, 2 acyl side, 3 side chain; on linkers, the order of the positions; unused ones are H or OH. Bridge positions count the residues as written; N and C are the ends. Side chains are listed from the residue outwards. Ends that are not written are not given here. * marks the point of attachment. C20 diacid = O=C(O)CCCCCCCCCCCCCCCCCCC(=O)*; γGlu = O=C(O)[C@H](CCC(=O)[*:2])N[*:1]; AEEA = NCCOCCOCC(=O)O

One test has as its target T1, human calcitonin receptor. Nature of the test: ratio of IC50 at human calcitonin receptor to IC50 at human amylin receptor (SPA competition assays). How it is done:
The resulting pellet was resuspended, homogenized and centrifuged (20.000 rpm, 15 min) in a buffer containing 20 mM Na-HEPES and 0.1 mM EDTA (pH 7.4, buffer 2). The resulting pellet was resuspended in buffer 2 and protein concentration was measured (BCA protein Assay, Pierce). The homogenate was kept cold during the whole procedure. The membranes were kept at −80° C. until use. The assay was performed in a 384 well Optiplate (PerkinElmer) in a total volume of 40 ul. Membranes were mixed with SPA beads. Final concentration of membranes 35 ng/μL final and SPA beads was 0.05 mg/well. Test-compounds were dissolved in DMSO and further diluted in assay buffer (50 mM Hepes, pH 7.4, 1 mM CaCl2, 5 mM MgCl₂, 0.1% OA and 0.02% Tween20). […] The final mixture was incubated with shaking at 400 rpm for 120 min at 25° C. prior to centrifugation (1500 rpm, 10 min). Samples were analyzed on TopCounter™ (Packard). The IC₅₀ was calculated using (one site binding competition analysis) GraphPad Prism5 as a measure of receptor affinity.
Membranes were prepared in the following way; the cells were rinsed with PBS and incubated with Versene for approximately 5 min before harvesting. The cells were flushed with PBS and the cell-suspension was centrifuged for 5 min at 1000 rpm. Cells were homogenized (Ultrathurrax) in a buffer containing 20 mM Na-HEPES and 10 mM EDTA (pH 7.4) and centrifuged at 20.000 rpm for 15 min. The resulting pellet was resuspended, homogenized and centrifuged (20.000 rpm, 15 min) in a buffer containing 20 mM Na-HEPES and 0.1 mM EDTA (pH 7.4, buffer 2). The resulting pellet was resuspended in buffer 2 and protein concentration was measured (BCA protein Assay, Pierce). The homogenate was kept cold during the whole procedure. The membranes were kept at −80° C. until use. Assay was performed in a 384 well Optiplate (PerkinElmer) in a total volume of 40 ul. Membranes were mixed with SPA beads.
Consider B1, for which the “Ratio hCT/hAmylin binding” value was 32.

As for B2, the “Ratio hCT/hAmylin binding” value came out at 65.3.

In the case of B3, the “Ratio hCT/hAmylin binding” value stood at 120.

Turning to B4, the “Ratio hCT/hAmylin binding” value worked out at 68.1.

The target in a further test is T1, human calcitonin receptor. As to the kind of experiment: SPA radioligand competition (125I-calcitonin), membranes of BHK cells with human calcitonin receptor. The procedure: Membranes were prepared in the following way; the cells were rinsed with PBS and incubated with Versene for approximately 5 min before harvesting. The cells were flushed with PBS and the cell-suspension was centrifuged for 5 min at 1000 rpm. Cells were homogenized (Ultrathurrax) in a buffer containing 20 mM Na-HEPES and 10 mM EDTA (pH 7.4) and centrifuged at 20.000 rpm for 15 min. The resulting pellet was resuspended, homogenized and centrifuged (20.000 rpm, 15 min) in a buffer containing 20 mM Na-HEPES and 0.1 mM EDTA (pH 7.4, buffer 2). The resulting pellet was resuspended in buffer 2 and protein concentration was measured (BCA protein Assay, Pierce). The homogenate was kept cold during the whole procedure. The membranes were kept at −80° C. until use. Assay was performed in a 384 well Optiplate (PerkinElmer) in a total volume of 40 ul. Membranes were mixed with SPA beads. Final concentration of membranes 35 ng/μL final and Final concentration of SPA beads was 0.05 mg/well. Test-compounds were dissolved in DMSO and further diluted in assay buffer (50 mM Hepes, pH 7.4, 1 mM CaCl2, 5 mM MgCl₂, 0.1% OA and 0.02% Tween20). […] The final mixture was incubated for 120 min with shaking at 400 rpm at 25° C. prior to centrifugation (1500 rpm, 10 min). Samples were analyzed on TopCounter™ (Packard). The […] was calculated using (one site binding competition analysis) GraphPad Prism5 as a measure of receptor affinity.
Take B1: the IC50 came to 1.53 nM.

On to B2, for which the IC50 came to 8.68 nM.

With B3, the IC50 stood at 88.9 nM.

Take B4: the IC50 is 19.8 nM.
